Assay results: the supplement of paper PMC10724198
± gives the standard deviation of the averaged measurements.
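Also: PSI is a weighted mean of sequencing reads over stability bins, variants kept only with over 10 reads, mCherry proximal and sfGFP distal, peptide attached via GGGS linker.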

What follows are sequences tested on Saccharomyces cerevisiae (assay: protein stability index of tFT-peptide fusion (C-terminal peptide) (PSI (0-1 scale)); higher = more stable (slower turnover)). Details: genetic background: wild type; temperature: 30 C.
PPTHDSPVWSPS showed a protein stability index of 0.743 ± 0.0086.
With PPVAYVCHLYVT the protein stability index was 0.428 ± 0.0053.
Sequence PPVLAPHLCFPP has a protein stability index of 0.724 ± 0.018.
PRTTHTPLLIAS was tested, and the protein stability index was 0.296 ± 0.021.
Sequence PSFLAIRVCLLV has a protein stability index of 0.133 ± 0.021.
For PSPRLSLPPRLP, the protein stability index was 0.737 ± 0.022.
PSPRRPPRSRFP gave a protein stability index of 0.732 ± 0.0084.
PSPYSLSPYFLV showed a protein stability index of 0.425 ± 0.044.
Work on PSRLSFALLFHL yielded a protein stability index of 0.49 ± 0.025.
Work on PTAGFFGLLVLV yielded a protein stability index of 0.397 ± 0.005.
PVHARYCSLKWA gave a protein stability index of 0.373 ± 0.087.
With PWGVGLACLFLL the protein stability index was 0.126 ± 0.025.
For PYPSVIFFLHVY, the protein stability index was 0.251 ± 0.049.
In the case of QIGSMLGVQGVG, the protein stability index is reported as 0.498 ± 0.031.
For QILVSYSFLYFF, the protein stability index was 0.509 ± 0.1.
QVVWAVPRICLV was tested, and the protein stability index was 0.445 ± 0.063.
For QWRSWSFATLVT, the protein stability index was 0.383 ± 0.0045.
Work on RCRLYLNVVVLC yielded a protein stability index of 0.246 ± 0.07.
In the case of RCTFSFSFPFVL, the protein stability index is reported as 0.596 ± 0.15.
RFCRVERAILLR showed a protein stability index of 0.481 ± 0.015.
With RFFKMREAIRIS the protein stability index was 0.339 ± 0.027.
For RFPFFLPFIAFL, the protein stability index was 0.37 ± 0.036.
RGCFVLRKTHLL was tested, and the protein stability index was 0.254 ± 0.0058.
Sequence RGVRALFLLLSF has a protein stability index of 0.375 ± 0.059.
For RHAHPLTAQLPL, the protein stability index was 0.7048 ± 0.0032.
RHIPSIILAHVV was tested, and the protein stability index was 0.295 ± 0.037.
For RICACHGIRFIP, the protein stability index was 0.444 ± 0.064.
In the case of RIFWMFFSQHIG, the protein stability index is reported as 0.197 ± 0.068.
RLCLLLCCRLWL gave a protein stability index of 0.4961 ± 0.0041.
Sequence RLFVRIQLSLLF has a protein stability index of 0.351 ± 0.0049.
Work on RLICFFSMYLRF yielded a protein stability index of 0.334 ± 0.14.
With RLLFFVFLSSRF the protein stability index was 0.407 ± 0.0066.
For RLRCRVLQWVWG, the protein stability index was 0.471 ± 0.035.
RLSTTTTKQFIH was tested, and the protein stability index was 0.4902 ± 0.0011.
Work on RMTFFGFTVKML yielded a protein stability index of 0.407 ± 0.031.
For RNFSFTVICLAM, the protein stability index was 0.511 ± 0.11.
RPCRPLIAAFVF gave a protein stability index of 0.502 ± 0.011.
For RQILYYRERFIP, the protein stability index was 0.313 ± 0.0065.
RRIKNRRLKQVT was tested, and the protein stability index was 0.43 ± 0.033.
RRQLVLVLSWVI showed a protein stability index of 0.377 ± 0.025.
For RRQQNHRQLCAT, the protein stability index was 0.401 ± 0.016.
Work on RRRNQAAHLYSH yielded a protein stability index of 0.268 ± 0.013.
For RSFGGRPWVLFL, the protein stability index was 0.192 ± 0.034.
RTRVRKTRIRTC showed a protein stability index of 0.392 ± 0.021.
RVFLVLFLILSG showed a protein stability index of 0.344 ± 0.028.
RVIRHLRRISNF was tested, and the protein stability index was 0.369 ± 0.021.
RVLSLLGCFVVF was tested, and the protein stability index was 0.4651 ± 0.0023.
With RVLVEIVYFKVF the protein stability index was 0.134 ± 0.0018.
RVRNSQVVAVVG gave a protein stability index of 0.477 ± 0.011.
Sequence RVTEYHTKYKIV has a protein stability index of 0.153 ± 0.012.
In the case of RWAAAVPLLVVG, the protein stability index is reported as 0.211 ± 0.022.
RWRYHAYVITIL gave a protein stability index of 0.138 ± 0.045.
In the case of RYKIEKKKLMNN, the protein stability index is reported as 0.42 ± 0.038.
SEVMVGLRLTLN was tested, and the protein stability index was 0.416 ± 0.038.
In the case of SFRIWLFRFFFV, the protein stability index is reported as 0.407 ± 0.018.
For SFSFCCLLASFV, the protein stability index was 0.44 ± 0.044.
SFSIPILLLAFP showed a protein stability index of 0.425 ± 0.006.
SFYAGLVVGGVG was tested, and the protein stability index was 0.528 ± 0.053.
Sequence SGLVAFSVCCRG has a protein stability index of 0.433 ± 0.021.
In the case of SGLVHVLILGAC, the protein stability index is reported as 0.45 ± 0.0019.
With SGRGFSFVLCTV the protein stability index was 0.4119 ± 2.1e-05.
In the case of SGRKNQRILGLY, the protein stability index is reported as 0.301 ± 0.055.
SLAPPPPLLILR was tested, and the protein stability index was 0.335 ± 0.022.
For SLARPGLCFVIA, the protein stability index was 0.417 ± 0.034.
Sequence SLASPPPLLILR has a protein stability index of 0.346 ± 0.023.
SLFFCIPIHSVF showed a protein stability index of 0.461 ± 0.014.
In the case of SLIVLRSIAVLD, the protein stability index is reported as 0.449 ± 0.012.
SLRYRFLSFFFL was tested, and the protein stability index was 0.282 ± 0.026.
In the case of SLSFLRPLLLIF, the protein stability index is reported as 0.102 ± 0.012.
In the case of SLTNYQRLIHVC, the protein stability index is reported as 0.258 ± 0.13.
Sequence SLVLLVASVTGS has a protein stability index of 0.464 ± 0.016.
SMFFLFFFFFFF gave a protein stability index of 0.36 ± 0.04.
SNFQLLPLFKNI showed a protein stability index of 0.39 ± 0.032.
Work on SPRGVVIAFLVC yielded a protein stability index of 0.129 ± 0.057.
SQIALIQYFHIL gave a protein stability index of 0.101 ± 0.06.
Work on SQVILFFLSLCR yielded a protein stability index of 0.552 ± 0.08.
SRICRTIIQLKQ gave a protein stability index of 0.168 ± 0.0027.
With SRLVSRLGLYLS the protein stability index was 0.361 ± 0.02.

What follows are sequences tested on Saccharomyces cerevisiae in the same assay as above. Details: genetic background: cdc34-1; temperature: 37 C.
Experimental: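 MPS profiling in S. cerevisiae of the tFT-X12 degron library: putative degron peptides plus stable controls, 12 aa, fused to the C-terminus of a sfGFP-mCherry timer. Cells are FACS-sorted into 8 mCherry/sfGFP bins and deep-sequenced. PSI runs from 0 (unstable) to 1 (stable). Backgrounds are wild type, das1Δ and doa10Δ at 30 °C, and wild type, das1Δ, cdc34-1 and cdc53-1 at 37 °C; 2-3 technical replicates each.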
Sequence PPTHDSPVWSPS has a protein stability index of 0.677 ± 0.06.
PPVAYVCHLYVT gave a protein stability index of 0.589 ± 0.058.
For PPVLAPHLCFPP, the protein stability index was 0.685 ± 0.008.
Sequence PRTTHTPLLIAS has a protein stability index of 0.566 ± 0.046.
PSFLAIRVCLLV showed a protein stability index of 0.0466 ± 0.00074.
For PSPRLSLPPRLP, the protein stability index was 0.631 ± 0.01.
For PSPRRPPRSRFP, the protein stability index was 0.651 ± 0.023.
Sequence PSPYSLSPYFLV has a protein stability index of 0.678 ± 0.032.
With PSRLSFALLFHL the protein stability index was 0.6483 ± 0.00029.
Sequence PTAGFFGLLVLV has a protein stability index of 0.361 ± 0.0094.
PVHARYCSLKWA was tested, and the protein stability index was 0.658 ± 0.037.
Sequence PWGVGLACLFLL has a protein stability index of 0.469 ± 0.017.
PYPSVIFFLHVY was tested, and the protein stability index was 0.43 ± 0.0097.
QIGSMLGVQGVG was tested, and the protein stability index was 0.454 ± 0.017.
With QILVSYSFLYFF the protein stability index was 0.5506 ± 0.0046.
For QVVWAVPRICLV, the protein stability index was 0.53508 ± 0.00047.
QWRSWSFATLVT was tested, and the protein stability index was 0.332 ± 0.017.
RCRLYLNVVVLC gave a protein stability index of 0.269 ± 0.027.
Work on RCTFSFSFPFVL yielded a protein stability index of 0.738 ± 0.032.
Work on RFCRVERAILLR yielded a protein stability index of 0.334 ± 0.0068.
RFFKMREAIRIS showed a protein stability index of 0.567 ± 0.088.
Work on RFPFFLPFIAFL yielded a protein stability index of 0.491 ± 0.012.
With RGCFVLRKTHLL the protein stability index was 0.635 ± 0.0083.
In the case of RGVRALFLLLSF, the protein stability index is reported as 0.493 ± 0.042.
With RHAHPLTAQLPL the protein stability index was 0.683 ± 0.031.
Work on RHIPSIILAHVV yielded a protein stability index of 0.645 ± 0.057.
Sequence RICACHGIRFIP has a protein stability index of 0.7111 ± 0.0033.
With RIFWMFFSQHIG the protein stability index was 0.569 ± 0.011.
In the case of RLCLLLCCRLWL, the protein stability index is reported as 0.53 ± 0.023.
With RLFVRIQLSLLF the protein stability index was 0.313 ± 0.036.
RLICFFSMYLRF showed a protein stability index of 0.239 ± 0.024.
RLLFFVFLSSRF was tested, and the protein stability index was 0.287 ± 0.019.
Work on RLRCRVLQWVWG yielded a protein stability index of 0.617 ± 0.0085.
For RLSTTTTKQFIH, the protein stability index was 0.668 ± 0.016.
With RMTFFGFTVKML the protein stability index was 0.641 ± 0.025.
RNFSFTVICLAM was tested, and the protein stability index was 0.48 ± 0.037.
In the case of RPCRPLIAAFVF, the protein stability index is reported as 0.531 ± 0.0097.
RQILYYRERFIP was tested, and the protein stability index was 0.577 ± 0.043.
RRIKNRRLKQVT showed a protein stability index of 0.63 ± 0.076.
Work on RRQLVLVLSWVI yielded a protein stability index of 0.466 ± 0.017.
RRQQNHRQLCAT was tested, and the protein stability index was 0.65 ± 0.092.
RRRNQAAHLYSH gave a protein stability index of 0.617 ± 0.024.
RSFGGRPWVLFL showed a protein stability index of 0.623 ± 0.037.
In the case of RTRVRKTRIRTC, the protein stability index is reported as 0.624 ± 0.039.
Sequence RVFLVLFLILSG has a protein stability index of 0.297 ± 0.021.
For RVIRHLRRISNF, the protein stability index was 0.647 ± 0.035.
Work on RVLSLLGCFVVF yielded a protein stability index of 0.501 ± 0.03.
For RVLVEIVYFKVF, the protein stability index was 0.244 ± 0.0031.
In the case of RVRNSQVVAVVG, the protein stability index is reported as 0.491 ± 0.014.
In the case of RVTEYHTKYKIV, the protein stability index is reported as 0.487 ± 0.13.
RWAAAVPLLVVG was tested, and the protein stability index was 0.0233 ± 0.0059.
For RWRYHAYVITIL, the protein stability index was 0.334 ± 0.02.
For RYKIEKKKLMNN, the protein stability index was 0.667 ± 0.019.
SEVMVGLRLTLN showed a protein stability index of 0.67 ± 0.051.
In the case of SFRIWLFRFFFV, the protein stability index is reported as 0.6 ± 0.034.
SFSFCCLLASFV gave a protein stability index of 0.605 ± 0.015.
With SFSIPILLLAFP the protein stability index was 0.264 ± 0.018.
Work on SFYAGLVVGGVG yielded a protein stability index of 0.582 ± 0.038.
SGLVAFSVCCRG showed a protein stability index of 0.4091 ± 0.00089.
SGLVHVLILGAC was tested, and the protein stability index was 0.4899 ± 0.0043.
In the case of SGRGFSFVLCTV, the protein stability index is reported as 0.539 ± 0.039.
With SGRKNQRILGLY the protein stability index was 0.656 ± 0.1.
With SLAPPPPLLILR the protein stability index was 0.403 ± 0.049.
SLARPGLCFVIA gave a protein stability index of 0.534 ± 0.002.
SLASPPPLLILR showed a protein stability index of 0.372 ± 0.057.
SLFFCIPIHSVF gave a protein stability index of 0.606 ± 0.046.
For SLIVLRSIAVLD, the protein stability index was 0.484 ± 0.015.
SLRYRFLSFFFL showed a protein stability index of 0.615 ± 0.038.
Sequence SLSFLRPLLLIF has a protein stability index of 0.0444 ± 0.014.
SLTNYQRLIHVC gave a protein stability index of 0.147 ± 0.037.
In the case of SLVLLVASVTGS, the protein stability index is reported as 0.507 ± 0.0053.
With SMFFLFFFFFFF the protein stability index was 0.396 ± 0.0071.
In the case of SNFQLLPLFKNI, the protein stability index is reported as 0.791 ± 0.12.
Sequence SPRGVVIAFLVC has a protein stability index of 0.425 ± 0.016.
SQIALIQYFHIL showed a protein stability index of 0.408 ± 0.02.
Work on SQVILFFLSLCR yielded a protein stability index of 0.607 ± 0.024.
With SRICRTIIQLKQ the protein stability index was 0.561 ± 0.025.
With SRLVSRLGLYLS the protein stability index was 0.656 ± 0.054.
